Results published in PMC3299815 (Biochemistry, 2012).

Biological target: the molecule itself
Test: SEC

B1: Rv0203-notag (natural protein)
chain: AMAASDPCAASEVARTVGSVAKSMGDYLDSHPETNQVMTAVLQQQVGPGSVASLKAHFEANPKVASDLHALSQPLTDLSTRCSLPISGLQAIGLMQAVQGARR
stoichiometry N: 2
